Where a chain is given by its changes, count along the chain named. Names may count otherwise.
B1: CE115HA000 A99K one-arm antibody (antibody, human IgG1, kappa, L234A L235A, N297A, name in Kabat numbering)
heavy: QVQLVESGGGVVQPGRSLRLSCAASGFTFSNAWMHWVRQAPGKGLEWVAQIKAKSNNYATYYAESVKGRFTISRDDSKNSLYLQMNSLKTEDTAVYYCRYVHYGKYYGVDAWGQGTTVTVSSASTKGPSVFPLAPSSKSTSGGTAALGCLVKDYFPEPVTVSWNSGALTSGVHTFPAVLQSSGLYSLSSVVTVPSSSLGTQTYICNVNHKPSNTKVDKKVEPKSCDKTHTCPPCPAPEAAGGPSVFLFPPKPKDTLMISRTPEVTCVVVDVSHEDPEVKFNWYVDGVEVHNAKTKPREEQYASTYRVVSVLTVLHQDWLNGKEYKCKVSNKALPAPIEKTISKAKGQPREPQVYTLPPSRCELTKNQVSLSCAVKGFYPSDIAVEWESNGQPENNYKTTPPVLDSDGSFFLVSKLTVDKSRWQQGNVFSCSVMHEALHNHYTQKSLSLSPDYKDDDDK
chain: EPKSSDKTHTCPPCPAPELLGGPSVFLFPPKPKDTLMISRTPEVTCVVVDVSHEDPEVKFNWYVDGVEVHNAKTKPREEQYNSTYRVVSVLTVLHQDWLNGKEYKCKVSNKALPAPIEKTISKAKGQPREPQVCTLPPSRDELTKNQVSLWCLVKGFYPSDIAVEWESNGQPENNYKTTPPVLDSDGSFFLYSKLTVDKSRWQQGNVFSCSVMHEALHNRYTQKSLSLSP
light: DIVMTQSPLSLPVTPGEPASISCRSSQSLVHSNRNTYLHWYQQKPGQAPRLLIYKVSNRFSGVPDRFSGSGSGTDFTLKISRVEAEDVGVYYCGQGTQVPYTFGQGTKLEIKRTVAAPSVFIFPPSDEQLKSGTASVVCLLNNFYPREAKVQWKVDNALQSGNSQESVTEQDSKDSTYSLSSTLTLSKADYEKHKVYACEVTHQGLSSPVTKSFNRGEC
notes: one-arm antibody
B2: CE115HA000 D101L one-arm antibody (antibody, human IgG1, kappa, L234A L235A, N297A, name in Kabat numbering)
heavy: B1 heavy with K105A, D110L
chain: B1 chain
light: B1 light
notes: one-arm antibody
B3: CE115HA000 D101P one-arm antibody (antibody, human IgG1, kappa, L234A L235A, N297A, name in Kabat numbering)
heavy: B1 heavy with K105A, D110P
chain: B1 chain
light: B1 light
notes: one-arm antibody
B4: CE115HA000 D72A one-arm antibody (antibody, human IgG1, kappa, L234A L235A, N297A, name in Kabat numbering)
heavy: B1 heavy with D75A, K105A
chain: B1 chain
light: B1 light
notes: one-arm antibody
B5: CE115HA000 D101R one-arm antibody (antibody, human IgG1, kappa, L234A L235A, N297A, name in Kabat numbering)
heavy: B1 heavy with K105A, D110R
chain: B1 chain
light: B1 light
notes: one-arm antibody
B6: CE115HA000 D101M one-arm antibody (antibody, human IgG1, kappa, L234A L235A, N297A, name in Kabat numbering)
heavy: B1 heavy with K105A, D110M
chain: B1 chain
light: B1 light
notes: one-arm antibody
B7: CE115HA000 A99Y one-arm antibody (antibody, human IgG1, kappa, L234A L235A, N297A, name in Kabat numbering)
heavy: B1 heavy with K105Y
chain: B1 chain
light: B1 light
notes: one-arm antibody
B8: CE115HA000 D101S one-arm antibody (antibody, human IgG1, kappa, L234A L235A, N297A, name in Kabat numbering)
heavy: B1 heavy with K105A, D110S
chain: B1 chain
light: B1 light
notes: one-arm antibody
B9: CE115HA000 D73N one-arm antibody (antibody, human IgG1, kappa, L234A L235A, N297A, name in Kabat numbering)
heavy: B1 heavy with D76N, K105A
chain: B1 chain
light: B1 light
notes: one-arm antibody
B10: CE115HA000 D73G one-arm antibody (antibody, human IgG1, kappa, L234A L235A, N297A, name in Kabat numbering)
heavy: B1 heavy with D76G, K105A
chain: B1 chain
light: B1 light
notes: one-arm antibody
B11: CE115HA000 D101G one-arm antibody (antibody, human IgG1, kappa, L234A L235A, N297A, name in Kabat numbering)
heavy: B1 heavy with K105A, D110G
chain: B1 chain
light: B1 light
notes: one-arm antibody
B12: CE115HA000 D73K one-arm antibody (antibody, human IgG1, kappa, L234A L235A, N297A, name in Kabat numbering)
heavy: B1 heavy with D76K, K105A
chain: B1 chain
light: B1 light
notes: one-arm antibody
B13: CE115HA000 D101K one-arm antibody (antibody, human IgG1, kappa, L234A L235A, N297A, name in Kabat numbering)
heavy: B1 heavy with K105A, D110K
chain: B1 chain
light: B1 light
notes: one-arm antibody
B14: CE115HA000 D101H one-arm antibody (antibody, human IgG1, kappa, L234A L235A, N297A, name in Kabat numbering)
heavy: B1 heavy with K105A, D110H
chain: B1 chain
light: B1 light
notes: one-arm antibody
B15: CE115HA000 A99Q one-arm antibody (antibody, human IgG1, kappa, L234A L235A, N297A, name in Kabat numbering)
heavy: B1 heavy with K105Q
chain: B1 chain
light: B1 light
notes: one-arm antibody
B16: CE115HA000 A102V one-arm antibody (antibody, human IgG1, kappa, L234A L235A, N297A, name in Kabat numbering)
heavy: B1 heavy with K105A, A111V
chain: B1 chain
light: B1 light
notes: one-arm antibody
B17: CE115HA000 A102P one-arm antibody (antibody, human IgG1, kappa, L234A L235A, N297A, name in Kabat numbering)
heavy: B1 heavy with K105A, A111P
chain: B1 chain
light: B1 light
notes: one-arm antibody
B18: CE115HA000 D73T one-arm antibody (antibody, human IgG1, kappa, L234A L235A, N297A, name in Kabat numbering)
heavy: B1 heavy with D76T, K105A
chain: B1 chain
light: B1 light
notes: one-arm antibody
B19: CE115HA000 D101I one-arm antibody (antibody, human IgG1, kappa, L234A L235A, N297A, name in Kabat numbering)
heavy: B1 heavy with K105A, D110I
chain: B1 chain
light: B1 light
notes: one-arm antibody
B20: CE115HA000 D72E one-arm antibody (antibody, human IgG1, kappa, L234A L235A, N297A, name in Kabat numbering)
heavy: B1 heavy with D75E, K105A
chain: B1 chain
light: B1 light
notes: one-arm antibody
B21: CE115HA000 D101F one-arm antibody (antibody, human IgG1, kappa, L234A L235A, N297A, name in Kabat numbering)
heavy: B1 heavy with K105A, D110F
chain: B1 chain
light: B1 light
notes: one-arm antibody
B22: CE115HA000 A99L one-arm antibody (antibody, human IgG1, kappa, L234A L235A, N297A, name in Kabat numbering)
heavy: B1 heavy with K105L
chain: B1 chain
light: B1 light
notes: one-arm antibody
B23: CE115HA000 D101Q one-arm antibody (antibody, human IgG1, kappa, L234A L235A, N297A, name in Kabat numbering)
heavy: B1 heavy with K105A, D110Q
chain: B1 chain
light: B1 light
notes: one-arm antibody
B24: CE115HA000 A102Y one-arm antibody (antibody, human IgG1, kappa, L234A L235A, N297A, name in Kabat numbering)
heavy: B1 heavy with K105A, A111Y
chain: B1 chain
light: B1 light
notes: one-arm antibody
B25: CE115HA000 D73R one-arm antibody (antibody, human IgG1, kappa, L234A L235A, N297A, name in Kabat numbering)
heavy: B1 heavy with D76R, K105A
chain: B1 chain
light: B1 light
notes: one-arm antibody
B26: CE115HA000 D73A one-arm antibody (antibody, human IgG1, kappa, L234A L235A, N297A, name in Kabat numbering)
heavy: B1 heavy with D76A, K105A
chain: B1 chain
light: B1 light
notes: one-arm antibody
B27: CE115HA000 A99T one-arm antibody (antibody, human IgG1, kappa, L234A L235A, N297A, name in Kabat numbering)
heavy: B1 heavy with K105T
chain: B1 chain
light: B1 light
notes: one-arm antibody
B28: CE115HA000 D101N one-arm antibody (antibody, human IgG1, kappa, L234A L235A, N297A, name in Kabat numbering)
heavy: B1 heavy with K105A, D110N
chain: B1 chain
light: B1 light
notes: one-arm antibody
B29: CE115HA000 A99S one-arm antibody (antibody, human IgG1, kappa, L234A L235A, N297A, name in Kabat numbering)
heavy: B1 heavy with K105S
chain: B1 chain
light: B1 light
notes: one-arm antibody
B30: CE115HA000 A102I one-arm antibody (antibody, human IgG1, kappa, L234A L235A, N297A, name in Kabat numbering)
heavy: B1 heavy with K105A, A111I
chain: B1 chain
light: B1 light
notes: one-arm antibody
B31: CE115HA000 D73E one-arm antibody (antibody, human IgG1, kappa, L234A L235A, N297A, name in Kabat numbering)
heavy: B1 heavy with D76E, K105A
chain: B1 chain
light: B1 light
notes: one-arm antibody
B32: CE115HA000 D72V one-arm antibody (antibody, human IgG1, kappa, L234A L235A, N297A, name in Kabat numbering)
heavy: B1 heavy with D75V, K105A
chain: B1 chain
light: B1 light
notes: one-arm antibody

These binders were tested against T1, CD3 epsilon homodimer protein (UniProt P07766 23-126) (assay: SPR (Biacore T200), CD3 epsilon homodimer on CM4 chip, one-arm antibody as analyte; ratio to unaltered CE115HA000;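 note: surface plasmon resonance run at 25 °C with HBS-EP+ as running buffer, CD3 epsilon homodimer attached by amine coupling, antibody passed over as analyte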).
T1 construct: Construct of the homodimer protein is not described; also called CD3 (CD3 epsilon)
T1 sequence (P07766 23-126): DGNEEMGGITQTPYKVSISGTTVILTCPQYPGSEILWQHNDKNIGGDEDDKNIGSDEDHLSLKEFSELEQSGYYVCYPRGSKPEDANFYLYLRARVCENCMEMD
For B1, the “KD ratio (KD value of CE115HA000/KD value of the altered form)” value (“KD ratio” for short) was 1.4.
For B2, the “KD ratio” value was 0.71.
With B3 the “KD ratio” value was 43.4.
In the case of B4, the “KD ratio” value is reported as 1.19.
With B5 the “KD ratio” value was 5.66.
With B6 the “KD ratio” value was 1.94.
In the case of B7, the “KD ratio” value is reported as 1.25.
B8 was tested, and the “KD ratio” value was 0.91.
B9 was tested, and the “KD ratio” value was 0.7.
B10 was tested, and the “KD ratio” value was 0.78.
For B11, the “KD ratio” value was 3.16.
B12 was tested, and the “KD ratio” value was 0.74.
For B13, the “KD ratio” value was 4.37.
With B14 the “KD ratio” value was 0.91.
With B15 the “KD ratio” value was 0.85.
B16 was tested, and the “KD ratio” value was 1.27.
With B17 the “KD ratio” value was 3.51.
For B18, the “KD ratio” value was 0.78.
With B19 the “KD ratio” value was 1.73.
With B20 the “KD ratio” value was 0.73.
With B21 the “KD ratio” value was 0.73.
In the case of B22, the “KD ratio” value is reported as 1.
With B23 the “KD ratio” value was 3.55.
In the case of B24, the “KD ratio” value is reported as 1.
For B25, the “KD ratio” value was 0.79.
With B26 the “KD ratio” value was 0.73.
B27 was tested, and the “KD ratio” value was 0.93.
With B28 the “KD ratio” value was 2.28.
B29 was tested, and the “KD ratio” value was 0.76.
For B30, the “KD ratio” value was 1.29.
For B31, the “KD ratio” value was 0.56.
For B32, the “KD ratio” value was 1.17.

Source: patent US20240270846A1 (published 2024)
